Reference: patent US20110105394A1 (Novo Nordisk, published 2011)
*1 amine or outer side, *2 acyl side, *3 side chain or, on linkers, in order; H or OH if unused. Bridges are numbered along the chain shown (N, C = ends). The star is where a group is joined. C20 diacid = O=C(O)CCCCCCCCCCCCCCCCCCC(=O)*; γGlu = O=C(O)[C@H](CCC(=O)[*:2])N[*:1]

T1: Amylin 3(a) receptor (human calcitonin receptor (CTa) with RAMP-3) (human) (UniProt P30988)
T1 sequence (looked up) 1: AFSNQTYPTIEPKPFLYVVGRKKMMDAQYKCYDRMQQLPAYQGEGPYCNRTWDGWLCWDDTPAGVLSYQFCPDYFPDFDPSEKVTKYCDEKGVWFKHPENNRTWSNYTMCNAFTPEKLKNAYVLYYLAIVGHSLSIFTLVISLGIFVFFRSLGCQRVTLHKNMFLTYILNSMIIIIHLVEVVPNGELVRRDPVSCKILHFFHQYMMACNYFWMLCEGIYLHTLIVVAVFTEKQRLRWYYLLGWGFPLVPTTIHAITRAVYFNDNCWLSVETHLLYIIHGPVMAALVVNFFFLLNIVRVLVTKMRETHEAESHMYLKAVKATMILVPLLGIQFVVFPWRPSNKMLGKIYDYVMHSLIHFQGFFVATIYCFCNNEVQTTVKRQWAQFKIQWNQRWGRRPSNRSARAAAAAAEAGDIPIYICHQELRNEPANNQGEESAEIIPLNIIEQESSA
T1 sequence (looked up) 2: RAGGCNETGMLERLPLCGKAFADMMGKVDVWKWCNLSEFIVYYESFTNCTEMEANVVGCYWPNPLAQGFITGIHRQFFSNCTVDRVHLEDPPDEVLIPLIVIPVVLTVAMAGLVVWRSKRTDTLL

B1: N-alpha-[(S)-4-Carboxy-4-(19-carboxynonadecanoylamino)butyryl]-Glu-His-His-[His1,His17]-pramlintide (peptide)
peptide: {C20 diacid-γGlu}-EHHHCNTATCATQRLANFLHHSSNNFGPILPPTNVGSNTY-NH2
modifications: disulfide 5-10
SMILES: CC[C@H](C)[C@H](NC(=O)[C@@H]1CCCN1C(=O)CNC(=O)[C@H](Cc1ccccc1)NC(=O)[C@H](CC(N)=O)NC(=O)[C@H](CC(N)=O)NC(=O)[C@H](CO)NC(=O)[C@H](CO)NC(=O)[C@H](Cc1c[nH]cn1)NC(=O)[C@H](Cc1c[nH]cn1)NC(=O)[C@H](CC(C)C)NC(=O)[C@H](Cc1ccccc1)NC(=O)[C@H](CC(N)=O)NC(=O)[C@H](C)NC(=O)[C@H](CC(C)C)NC(=O)[C@H](CCCNC(=N)N)NC(=O)[C@H](CCC(N)=O)NC(=O)[C@@H](NC(=O)[C@H](C)NC(=O)[C@@H]1CSSC[C@H](NC(=O)[C@H](Cc2c[nH]cn2)NC(=O)[C@H](Cc2c[nH]cn2)NC(=O)[C@H](Cc2c[nH]cn2)NC(=O)[C@H](CCC(=O)O)NC(=O)CC[C@H](NC(=O)CCCCCCCCCCCCCCCCCCC(=O)O)C(=O)O)C(=O)N[C@@H](CC(N)=O)C(=O)N[C@@H]([C@@H](C)O)C(=O)N[C@@H](C)C(=O)N[C@@H]([C@@H](C)O)C(=O)N1)[C@@H](C)O)C(=O)N[C@@H](CC(C)C)C(=O)N1CCC[C@H]1C(=O)N1CCC[C@H]1C(=O)N[C@H](C(=O)N[C@@H](CC(N)=O)C(=O)N[C@H](C(=O)NCC(=O)N[C@@H](CO)C(=O)N[C@@H](CC(N)=O)C(=O)N[C@H](C(=O)N[C@@H](Cc1ccc(O)cc1)C(N)=O)[C@@H](C)O)C(C)C)[C@@H](C)O
B2: N-alpha-[(S)-4-Carboxy-4-(19-carboxynonadecanoylamino)butyryl]-Glu-His-His-[Arg1,His17]-pramlintide (peptide)
peptide: {C20 diacid-γGlu}-EHHRCNTATCATQRLANFLHHSSNNFGPILPPTNVGSNTY-NH2
modifications: disulfide 5-10
SMILES: CC[C@H](C)[C@H](NC(=O)[C@@H]1CCCN1C(=O)CNC(=O)[C@H](Cc1ccccc1)NC(=O)[C@H](CC(N)=O)NC(=O)[C@H](CC(N)=O)NC(=O)[C@H](CO)NC(=O)[C@H](CO)NC(=O)[C@H](Cc1c[nH]cn1)NC(=O)[C@H](Cc1c[nH]cn1)NC(=O)[C@H](CC(C)C)NC(=O)[C@H](Cc1ccccc1)NC(=O)[C@H](CC(N)=O)NC(=O)[C@H](C)NC(=O)[C@H](CC(C)C)NC(=O)[C@H](CCCNC(=N)N)NC(=O)[C@H](CCC(N)=O)NC(=O)[C@@H](NC(=O)[C@H](C)NC(=O)[C@@H]1CSSC[C@H](NC(=O)[C@H](CCCNC(=N)N)NC(=O)[C@H](Cc2c[nH]cn2)NC(=O)[C@H](Cc2c[nH]cn2)NC(=O)[C@H](CCC(=O)O)NC(=O)CC[C@H](NC(=O)CCCCCCCCCCCCCCCCCCC(=O)O)C(=O)O)C(=O)N[C@@H](CC(N)=O)C(=O)N[C@@H]([C@@H](C)O)C(=O)N[C@@H](C)C(=O)N[C@@H]([C@@H](C)O)C(=O)N1)[C@@H](C)O)C(=O)N[C@@H](CC(C)C)C(=O)N1CCC[C@H]1C(=O)N1CCC[C@H]1C(=O)N[C@H](C(=O)N[C@@H](CC(N)=O)C(=O)N[C@H](C(=O)NCC(=O)N[C@@H](CO)C(=O)N[C@@H](CC(N)=O)C(=O)N[C@H](C(=O)N[C@@H](Cc1ccc(O)cc1)C(N)=O)[C@@H](C)O)C(C)C)[C@@H](C)O
B3: N-alpha-[(S)-4-Carboxy-4-(19-carboxynonadecanoylamino)butyryl]-Glu-His-Arg-[His1,His17]-pramlintide (peptide)
peptide: {C20 diacid-γGlu}-EHRHCNTATCATQRLANFLHHSSNNFGPILPPTNVGSNTY-NH2
modifications: disulfide 5-10
SMILES: CC[C@H](C)[C@H](NC(=O)[C@@H]1CCCN1C(=O)CNC(=O)[C@H](Cc1ccccc1)NC(=O)[C@H](CC(N)=O)NC(=O)[C@H](CC(N)=O)NC(=O)[C@H](CO)NC(=O)[C@H](CO)NC(=O)[C@H](Cc1c[nH]cn1)NC(=O)[C@H](Cc1c[nH]cn1)NC(=O)[C@H](CC(C)C)NC(=O)[C@H](Cc1ccccc1)NC(=O)[C@H](CC(N)=O)NC(=O)[C@H](C)NC(=O)[C@H](CC(C)C)NC(=O)[C@H](CCCNC(=N)N)NC(=O)[C@H](CCC(N)=O)NC(=O)[C@@H](NC(=O)[C@H](C)NC(=O)[C@@H]1CSSC[C@H](NC(=O)[C@H](Cc2c[nH]cn2)NC(=O)[C@H](CCCNC(=N)N)NC(=O)[C@H](Cc2c[nH]cn2)NC(=O)[C@H](CCC(=O)O)NC(=O)CC[C@H](NC(=O)CCCCCCCCCCCCCCCCCCC(=O)O)C(=O)O)C(=O)N[C@@H](CC(N)=O)C(=O)N[C@@H]([C@@H](C)O)C(=O)N[C@@H](C)C(=O)N[C@@H]([C@@H](C)O)C(=O)N1)[C@@H](C)O)C(=O)N[C@@H](CC(C)C)C(=O)N1CCC[C@H]1C(=O)N1CCC[C@H]1C(=O)N[C@H](C(=O)N[C@@H](CC(N)=O)C(=O)N[C@H](C(=O)NCC(=O)N[C@@H](CO)C(=O)N[C@@H](CC(N)=O)C(=O)N[C@H](C(=O)N[C@@H](Cc1ccc(O)cc1)C(N)=O)[C@@H](C)O)C(C)C)[C@@H](C)O
B4: N-alpha-[(S)-4-Carboxy-4-(19-carboxynonadecanoylamino)butyryl]-GluHis-His-[Arg1,His17,Gln21]-pramlintide (peptide)
peptide: {C20 diacid-γGlu}-EHHRCNTATCATQRLANFLHHSSQNFGPILPPTNVGSNTY-NH2
modifications: disulfide 5-10
SMILES: CC[C@H](C)[C@H](NC(=O)[C@@H]1CCCN1C(=O)CNC(=O)[C@H](Cc1ccccc1)NC(=O)[C@H](CC(N)=O)NC(=O)[C@H](CCC(N)=O)NC(=O)[C@H](CO)NC(=O)[C@H](CO)NC(=O)[C@H](Cc1c[nH]cn1)NC(=O)[C@H](Cc1c[nH]cn1)NC(=O)[C@H](CC(C)C)NC(=O)[C@H](Cc1ccccc1)NC(=O)[C@H](CC(N)=O)NC(=O)[C@H](C)NC(=O)[C@H](CC(C)C)NC(=O)[C@H](CCCNC(=N)N)NC(=O)[C@H](CCC(N)=O)NC(=O)[C@@H](NC(=O)[C@H](C)NC(=O)[C@@H]1CSSC[C@H](NC(=O)[C@H](CCCNC(=N)N)NC(=O)[C@H](Cc2c[nH]cn2)NC(=O)[C@H](Cc2c[nH]cn2)NC(=O)[C@H](CCC(=O)O)NC(=O)CC[C@H](NC(=O)CCCCCCCCCCCCCCCCCCC(=O)O)C(=O)O)C(=O)N[C@@H](CC(N)=O)C(=O)N[C@@H]([C@@H](C)O)C(=O)N[C@@H](C)C(=O)N[C@@H]([C@@H](C)O)C(=O)N1)[C@@H](C)O)C(=O)N[C@@H](CC(C)C)C(=O)N1CCC[C@H]1C(=O)N1CCC[C@H]1C(=O)N[C@H](C(=O)N[C@@H](CC(N)=O)C(=O)N[C@H](C(=O)NCC(=O)N[C@@H](CO)C(=O)N[C@@H](CC(N)=O)C(=O)N[C@H](C(=O)N[C@@H](Cc1ccc(O)cc1)C(N)=O)[C@@H](C)O)C(C)C)[C@@H](C)O
B5: N-alpha-[(S)-4-Carboxy-4-(19-carboxynonadecanoylamino)butyryl]-Glu-His-Arg-[Arg1,His17]-pramlintide (peptide)
peptide: {C20 diacid-γGlu}-EHRRCNTATCATQRLANFLHHSSNNFGPILPPTNVGSNTY-NH2
modifications: disulfide 5-10
SMILES: CC[C@H](C)[C@H](NC(=O)[C@@H]1CCCN1C(=O)CNC(=O)[C@H](Cc1ccccc1)NC(=O)[C@H](CC(N)=O)NC(=O)[C@H](CC(N)=O)NC(=O)[C@H](CO)NC(=O)[C@H](CO)NC(=O)[C@H](Cc1c[nH]cn1)NC(=O)[C@H](Cc1c[nH]cn1)NC(=O)[C@H](CC(C)C)NC(=O)[C@H](Cc1ccccc1)NC(=O)[C@H](CC(N)=O)NC(=O)[C@H](C)NC(=O)[C@H](CC(C)C)NC(=O)[C@H](CCCNC(=N)N)NC(=O)[C@H](CCC(N)=O)NC(=O)[C@@H](NC(=O)[C@H](C)NC(=O)[C@@H]1CSSC[C@H](NC(=O)[C@H](CCCNC(=N)N)NC(=O)[C@H](CCCNC(=N)N)NC(=O)[C@H](Cc2c[nH]cn2)NC(=O)[C@H](CCC(=O)O)NC(=O)CC[C@H](NC(=O)CCCCCCCCCCCCCCCCCCC(=O)O)C(=O)O)C(=O)N[C@@H](CC(N)=O)C(=O)N[C@@H]([C@@H](C)O)C(=O)N[C@@H](C)C(=O)N[C@@H]([C@@H](C)O)C(=O)N1)[C@@H](C)O)C(=O)N[C@@H](CC(C)C)C(=O)N1CCC[C@H]1C(=O)N1CCC[C@H]1C(=O)N[C@H](C(=O)N[C@@H](CC(N)=O)C(=O)N[C@H](C(=O)NCC(=O)N[C@@H](CO)C(=O)N[C@@H](CC(N)=O)C(=O)N[C@H](C(=O)N[C@@H](Cc1ccc(O)cc1)C(N)=O)[C@@H](C)O)C(C)C)[C@@H](C)O
B6: N-alpha-[(S)-4-Carboxy-4-(19-carboxynonadecanoylamino)butyryl]-Glu-His-His-[Arg1,Arg17]-pramlintide (peptide)
peptide: {C20 diacid-γGlu}-EHHRCNTATCATQRLANFLRHSSNNFGPILPPTNVGSNTY-NH2
modifications: disulfide 5-10
SMILES: CC[C@H](C)[C@H](NC(=O)[C@@H]1CCCN1C(=O)CNC(=O)[C@H](Cc1ccccc1)NC(=O)[C@H](CC(N)=O)NC(=O)[C@H](CC(N)=O)NC(=O)[C@H](CO)NC(=O)[C@H](CO)NC(=O)[C@H](Cc1c[nH]cn1)NC(=O)[C@H](CCCNC(=N)N)NC(=O)[C@H](CC(C)C)NC(=O)[C@H](Cc1ccccc1)NC(=O)[C@H](CC(N)=O)NC(=O)[C@H](C)NC(=O)[C@H](CC(C)C)NC(=O)[C@H](CCCNC(=N)N)NC(=O)[C@H](CCC(N)=O)NC(=O)[C@@H](NC(=O)[C@H](C)NC(=O)[C@@H]1CSSC[C@H](NC(=O)[C@H](CCCNC(=N)N)NC(=O)[C@H](Cc2c[nH]cn2)NC(=O)[C@H](Cc2c[nH]cn2)NC(=O)[C@H](CCC(=O)O)NC(=O)CC[C@H](NC(=O)CCCCCCCCCCCCCCCCCCC(=O)O)C(=O)O)C(=O)N[C@@H](CC(N)=O)C(=O)N[C@@H]([C@@H](C)O)C(=O)N[C@@H](C)C(=O)N[C@@H]([C@@H](C)O)C(=O)N1)[C@@H](C)O)C(=O)N[C@@H](CC(C)C)C(=O)N1CCC[C@H]1C(=O)N1CCC[C@H]1C(=O)N[C@H](C(=O)N[C@@H](CC(N)=O)C(=O)N[C@H](C(=O)NCC(=O)N[C@@H](CO)C(=O)N[C@@H](CC(N)=O)C(=O)N[C@H](C(=O)N[C@@H](Cc1ccc(O)cc1)C(N)=O)[C@@H](C)O)C(C)C)[C@@H](C)O

Biological target: T1, Amylin 3(a) receptor (human calcitonin receptor (CTa) with RAMP-3) (human)
Test: cell-based or functional assay

Potency Luciferase [nM]	Binder
0.1	B1
0.1	B2
0.1	B3
0.1	B4
0.2	B5
0.2	B6
